Reference: WO2015037992A1 (dated 2015)

Target: T1, HPeV1 VP1 (recombinant capsid protein, his-tag) (human parechovirus 1 (Harris), UniProt Q66578 543-773)
T1 sequence: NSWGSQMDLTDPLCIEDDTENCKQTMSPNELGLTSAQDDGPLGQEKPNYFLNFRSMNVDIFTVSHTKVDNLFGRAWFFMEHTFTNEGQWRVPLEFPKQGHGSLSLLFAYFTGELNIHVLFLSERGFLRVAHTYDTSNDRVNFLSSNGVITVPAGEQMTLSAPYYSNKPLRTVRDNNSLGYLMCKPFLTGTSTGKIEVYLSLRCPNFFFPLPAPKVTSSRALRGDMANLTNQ

B1: AM18 (antibody, V domains shown)
VH: QVQFMQSGAEVKKPGASVKVSCKASGDTFSNFAVHWVRQAPGQRPEWMGWVNAGDSNLKYSQRFQGRLIITRDTFASTVYLDLSSLTSKDTAVYYCAGGNFGGNSATFDYWGQGTLVTVSS
VL: EIVLTQSPGTLSLSPGERATLSCRASQSVSDNYLAWYQQKPGQAPRLLIYGASHKSTGIPDRFSGSGSGTDFTLTISRLEPEDFAVYYCQQYGGSPLTFGGGTKVEIKR
Work on B1 yielded a Kd of 0.0115 nM, a koff of 2.3e-06 s⁻¹ and a kon of 208000 M⁻¹ s⁻¹.
